Laboratory results: patent US20250277199, “NOVEL CRISPR-CAS NUCLEASES FROM METAGENOMES” (Brain Biotech AG, published 2025)

Target: T1, BMC01 (uncultured bacterium (metagenome))
T1 chain: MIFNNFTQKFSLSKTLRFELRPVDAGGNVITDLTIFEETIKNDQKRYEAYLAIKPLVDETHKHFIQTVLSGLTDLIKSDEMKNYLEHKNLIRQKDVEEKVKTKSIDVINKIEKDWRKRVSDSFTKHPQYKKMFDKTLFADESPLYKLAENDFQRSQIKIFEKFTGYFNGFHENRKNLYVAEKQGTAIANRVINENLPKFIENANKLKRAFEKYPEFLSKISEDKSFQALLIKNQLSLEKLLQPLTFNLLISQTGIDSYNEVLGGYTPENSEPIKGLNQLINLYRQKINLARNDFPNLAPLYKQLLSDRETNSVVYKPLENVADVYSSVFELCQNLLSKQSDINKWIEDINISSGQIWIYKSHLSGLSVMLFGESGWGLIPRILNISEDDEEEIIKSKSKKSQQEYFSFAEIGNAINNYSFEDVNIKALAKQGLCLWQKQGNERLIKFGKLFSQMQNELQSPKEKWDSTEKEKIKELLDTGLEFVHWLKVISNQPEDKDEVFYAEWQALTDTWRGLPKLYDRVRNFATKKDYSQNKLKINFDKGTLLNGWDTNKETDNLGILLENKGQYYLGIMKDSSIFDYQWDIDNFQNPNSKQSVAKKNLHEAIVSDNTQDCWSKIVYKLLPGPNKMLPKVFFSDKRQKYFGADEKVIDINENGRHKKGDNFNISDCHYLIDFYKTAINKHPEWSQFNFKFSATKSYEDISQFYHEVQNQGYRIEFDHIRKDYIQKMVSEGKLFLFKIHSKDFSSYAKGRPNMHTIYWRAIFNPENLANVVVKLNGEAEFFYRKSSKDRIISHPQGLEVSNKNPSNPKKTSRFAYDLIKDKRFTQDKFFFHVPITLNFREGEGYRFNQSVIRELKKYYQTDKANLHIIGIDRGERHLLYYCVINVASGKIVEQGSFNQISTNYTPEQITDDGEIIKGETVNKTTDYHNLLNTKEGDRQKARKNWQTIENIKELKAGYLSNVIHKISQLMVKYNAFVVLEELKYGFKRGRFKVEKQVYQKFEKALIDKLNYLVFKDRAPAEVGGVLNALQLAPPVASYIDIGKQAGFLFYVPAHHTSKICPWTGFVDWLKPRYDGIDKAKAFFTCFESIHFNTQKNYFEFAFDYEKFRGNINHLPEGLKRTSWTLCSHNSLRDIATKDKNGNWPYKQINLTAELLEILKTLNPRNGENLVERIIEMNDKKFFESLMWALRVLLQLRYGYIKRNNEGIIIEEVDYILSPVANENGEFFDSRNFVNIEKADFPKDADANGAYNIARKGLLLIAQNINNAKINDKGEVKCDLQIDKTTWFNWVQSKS
Assay: cell_activity; PAM not stated; E. coli depletion, 30 C
Procedure: Overnight grown pre-cultures were diluted into fresh 60 ml LB-Kanamycin (25 μg/ml) (Example 4) or LB-Kanamycin (25μg/ml)/Nourseothricin (50 μg/ml) medium (Example 5) to obtain an optical density at 600 nm (OD600) of 0.06. The inoculated medium was incubated at 30° C. on a horizontal shaker at 250 rpm until the culture reached an optical density at OD600 of 0.2. For induced BMC (NN) nuclease expression, 600 μl 20% L-(+)-arabinose (w/v) was added to the culture at a final concentration of 0.2% (v/v). The cultivation was continued until the culture reached an optical density at OD600 of 0.5. Subsequently 50 ml culture was transferred into one 50 ml conical tube and harvested by centrifugation at 4° C. for 5 min and 4000×g. Pelleted cells were resuspended in 50 ml ultrapure water (ice-cold) and centrifuged at 4° C. for 5 min and 4000×g.
This washing procedure was repeated twice. Washed cells were resuspended in 25 ml 10% (w/w) glycerin and re-centrifuged at 4° C. for 5 min and 4000×g. The pelleted cells were resuspended in 5 ml 10% (w/w) glycerin. After the final centrifugation step at 4° C. for 5 min and 4000×g, the cells were resuspended in 125 μl 10% (w/w) glycerin. Aliquots of 25 μl competent cells were stored at −80° C. until use. For the transformation procedure, aliquots of competent cells were thawed on ice and 50-100 ng plasmid DNA (CRISPR/gRNA-Ec) was added. Prepared cells were electroporated at 1800 V, 25 μF and 200 Ω in 1 mm gap size electroporation cuvettes, using the Bio-Rad Gene Pulser Xcell Electroporation System. Subsequently, 975 μL of NEB® 10-beta/Stable Outgrowth Medium was added immediately after the pulse to the transformed cells. Regeneration was done at 30° C. on a horizontal shaker at 250 rpm. Finally, 25-100 μl of the cell suspension was plated onto selective M9-Glucose agar plates supplemented with Kanamycin (25 μg/ml)/Ampicillin (100 μg/ml) (Example 4) or Kanamycin (25 μg/ml)/Ampicillin (100 μg/ml)/Nourseothrin (50 μg/ml) (Example 5). Growth of transformed E. coli cells on selective agar plates was screened for 48 h at 30° C.
As described above, each of the BMC01, BMC02, BMC03, BMC04, BMC05, BMC07, BMC08, BMC09, BMC10, BMC11, BMC12, BMC13, BMC14, or BMC15 nucleases was co-transformed into E. coli with a gRNA targeting the E. coli malQ gene to visualize a) the activity and b) the DNA targeting efficiency of the BMC nucleases.

B1: malQ gRNA (BMC stem-loop + 24 nt spacer) ; malQ protospacer (ssRNA ; dsDNA)
RNA: GAUUUCUACUAUUGUAGAUGUGGCGGUACGUUGAUGCAUCGCG
DNA 1: GTGGCGGTACGTTGATGCATCGCG
DNA 2: CGCGATGCATCAACGTACCGCCAC
activity: > 99.9 % colony reduction
